One substance from patent publication US20190330665A1 can be followed below.

The target in the test is T7 RNA polymerase (UniProt P00573). Nature of the test: cell-based or functional assay.

For the substance “catalytically-deactivated variant of T7 lysozyme (LysY) (from UniProt P00806 2-151)”, the decrease in basal mNeonGreen expression in exponential phase (PT7:mNeonGreen reporter, PurtA:T7pol biosensor strain) stood at 78%.
